Reference: patent US20250283129A1, “PROCESS” (Sun Pharmaceutical Industries Australia Pty Limited, priority 2021, published 2025)

Tests used:
codeine = assay: Whole cell biotransformation of codeine to morphine by E. coli cells expressing CODM variants; format: cell-based
thebaine = assay: Whole cell biotransformation of thebaine to oripavine by E. coli cells expressing CODM variants; format: cell-based

B1: 15K+M360I: codeine 3-O-demethylase with amino acid substitutions I5K and M360I (protein, listed as Papaver somniferum)
chain: METPKLIKLGNGLSIPSVQELAKLTLAEIPSRYTCTGESPLNNIGASVTDDETVPVIDLQNLLSPEPVVGKLELDKLHSACKEWGFFQLVNHGVDALLMDNIKSEIKGFFNLPMNEKTKYGQQDGDFEGFGQPYIESEDQRLDWTEVFSMLSLPLHLRKPHLFPELPLPFRETLESYLSKMKKLSTVVFEMLEKSLQLVEIKGMTDLFEDGLQTMRMNYYPPCPRPELVLGLTSHSDFSGLTILLQLNEVEGLQIRKEERWISIKPLPDAFIVNVGDILEIMTNGIYRSVEHRAVVNSTKERLSIATFHDSKLESEIGPISSLVTPETPALFKRGRYEDILKENLSRKLDGKSFLDYMRI
codeine; Example 4, morphine measured after 15 minutes
  increase in morphine yield relative to the WT CODM strain: 2.3 ×
codeine; time course over two hours
  speed of biotransformation with codeine as substrate (in words): faster than the WT CODM control
codeine; time course, after one hour
  yield of morphine: ~94%
thebaine; Example 4, oripavine measured after 2 hours
  increase in oripavine yield relative to the WT CODM strain: 2.76 ×
thebaine; time course over twenty-four hours
  speed of biotransformation with thebaine as substrate (in words): performed the fastest biotransformation
thebaine; time course, after ~five hours
  yield of thebaine to oripavine: ~95%
